One assay concerns spinal cord injured rats. Put plainly: Spinal cord injury (clip compression), functional analysis (BBB, motor subscore, ladder-walk). It is filed as in vivo, rat. Conditions: for functional recovery (BBB score and motor subscore) compared to controls: 4Ig IV or MβCD IP. As for the experimental part: The spinal cord was injured by clip compression at spinal cord level T8 with a 20 g force. The 4Ig or vehicle was injected intraspinally immediately following SCI. 2 injections (250 ng/μL, 3 μL each) were made 1 mm rostral and 1 mm caudal to the lesion site and adjacent to the midline vein. Immediately following SCI, the 4Ig treated rats also received a 1 mg/kg dose of 4Ig intravenously (i.v.) via the intrajugular vein and subsequent i.v. injections weekly for 2 more weeks. Rats in the MβCD group received intraperitoneal (i.p.) injection of MβCD at 1000 mg/kg/week immediately following SCI and then daily i.p. injections until sacrifice. Control rats received equivalent vehicle volumes as described above.
To assess local delivery of 4Ig, 19 adult female Wistar rats were injured and injected rostral and caudal to the lesion site with 4Ig or PBS. Immediately after the intraspinal injections, 4Ig or PBS was delivered intrathecally and then continuously for 14 days (0.5 μL/hour) via the catheter and pump system.
Functional tests were performed before the injury, 1 day, and then weekly for 6 weeks post-SCI. Locomotor function was evaluated using the BBB locomotor rating scale. A score of 0 indicates no hindlimb movement, a score of 21 indicates unimpaired locomotion as observed in Control. Motor subscores were determined to assess toe clearance, predominant paw position and absence of instability. A maximal motor subscore of 7 means normal locomotion.
Ladder-walk analysis was done to assess fine motor functions. At 1 week post-SCI and weekly thereafter, rats with a BBB score greater than 10 were placed on the horizontal ladder-walk apparatus and 3 test runs were recorded. Recordings were analyzed in slow motion; the number of footfalls per hindlimb was recorded and the average was calculated for each rat per week.
Pre-operatively, 32 adult female Wistar rats (Charles River, St. Constant, QC, 200-300 g) were acclimatized and trained for baseline behavioral assessment. Rats were divided into 4 groups (n=8/group): 1) MBCD (i.p.); 2) vehicle control (i.p); 3) 4Ig (i.v. and intraspinal); 4) vehicle control (i.v. and intraspinal). Rats were anesthetized by inhalation of 2% isofluorane in combination with a mixture of nitrous oxide and oxygen (1:2, v/v). The spinal cord was exposed by laminectomy and a clip compression injury was made at spinal cord level T8 with a 20 g force. This was a clinically relevant model of SCI reflecting human pathology. n the 4Ig and equivalent control group, 4Ig or vehicle was injected intraspinally immediately following SCI. A total of 2 injections (250 ng/μL, 3 μL each) were made 1 mm rostral and 1 mm caudal to the lesion site and adjacent to the midline vein. Injections were made stereotactically with the aid of an operating microscope using a motorized microinjector at a rate of 1.5 μl/min with a 10 μl Hamilton syringe and a customized 32 G needle. The needle was left in place for an additional 2 min after injection to prevent leakage. The overlying muscle and skin were sutured with 3-0 vicryl sutures (Johnson and Johnson, Peterborough ON, Canada).
Immediately following SCI, the 4Ig treated rats also received a 1 mg/kg dose of 4Ig i.v. via the intrajugular vein and subsequent i.v. injections weekly for 2 more weeks. Rats in the MβCD group received intraperitoneal injection of MβCD at 1000 mg/kg/week immediately following SCI and then daily i.p. injections until sacrifice. Control rats received equivalent volumes as described above. Bladders were evacuated manually 3 times daily until spontaneous voiding was established, and hematuria or urinary tract infection was treated with Clavomax (62.5 mg PO BID for 7 days). The rats were housed singly in a temperature-controlled room at 26° C. with a 12 hour light/dark cycle. Water and food were provided ad libitum. […]

Assay [1] has as its system corticospinal tract axons. Put plainly: Spinal cord injury, anterograde axonal tracing of the corticospinal tract with BDA. The assay is classed as in vivo, rat. Conditions: for maximal distance of labeled fibers caudal to the lesion site: 4IG IV or MBCD IP; for average length of the longest axon: BDA tracing post-SCI, respective controls 18±7 and 128±118 μm. As for the experimental part:
To visualize axons from the CST, anterograde axonal tracing with BDA was performed 6 weeks after SCI following completion of the functional assessment. Animals (n=3-4) from each group were randomly selected for BDA injection. Under deep anesthesia with 2% isofluorane with 1:2 NO:O2, rats were positioned in a stereotaxic frame and craniotomy was performed bilaterally to expose the sensorimotor cortex. BDA (10%, 10,000 MW; Invitrogen (Life Technologies)) was dissolved in 0.01M PBS and injected at 6 sites in each sensorimotor cortex using the following coordinates in reference to bregma: 1) 0.5 mm posterior and 1 mm lateral, 2) 0.5 mm posterior and 2 mm lateral, 3) 1 mm posterior and 1 mm lateral, 4) 1 mm posterior and 2 mm lateral, 5) 1.5 mm posterior and 1 mm lateral, 6) 1.5 mm posterior and 2 mm lateral. At each site, 1 μl of BDA was injected 1.2 mm from the surface of the cortex. Injections were made stereotactically with the aid of an operating microscope using a motorized microinjector at a rate of 0.5 μl/min with a 10 μl Hamilton syringe and a 32-gauge needle. The needle was left in place for an additional 2 min after injection to prevent leakage and the skin was closed with 6-0 Vicryl. Animals were allowed to survive for 3 more weeks and then intracardially perfused with 4% paraformaldehyde in 0.1 M PBS. BDA tissue including a 1.5 cm segment of tissue encompassing the lesion site was excised and processed as either 20 μm cryosections on slides or free-floating 30 μm sections. Free-floating sections were collected in 24-well plates containing PBS. Sections were pre-treated with 1% H2O2 in methanol for 10 min at RT, rinsed with PBS containing 0.5% Triton X for 30 min, and incubated in avidin-biotin peroxidase complex (Vectostain Elite ABC Kit Standard, Vector Laboratories, Burlington, ON, Canada) for 1 h at RT. Slides were washed with PBS, and then incubated with fluorescent Alexa-488 goat anti-mouse secondary antibody (1:500; Invitrogen (Life Technologies)) for 1 h at RT and coverslipped with Vectashield mounting medium containing DAPI (4′, 6-diamidino-2-phenyl-indole) (Vector Laboratories, Burlington, Ontario, Canada) nuclear counterstain.

Another assay has as its system photoreceptor cells. The assay is described as follows: Photoreceptor survival in rd1 mice (retinitis pigmentosa model). It is filed as in vivo, mouse. As for the experimental part:
The rd1 mouse model is a model for human RP and carried a loss-of-function mutation in the gene encoding for the β-subunit of the rod photoreceptor cGMP phosphodiesterase-6.2. This loss-of-function mutation led to an accumulation of cGMP, which caused photoreceptor cell death.
In these studies, intraocular injection of the 4Ig (2 μg/μl) peptide at P9 and P15 was performed and animals were sacrificed at P21 to examine cell survival. […] Injection of 4Ig increased outer nuclear layer (ONL) thickness to about 6 cells (FIG. 19). This measurement was the average thickness of the ONL.
As described above, cholesterol depletion removes lipid rafts. Specifically, mice were treated with daily […] (IP) injections of MβCD from P9 to P21.
To examine the effect of reducing cholesterol synthesis on cell survival, AY-9944 was examined in rd1 mice (FIGS. 20 and 21). Rd1 mice were treated using two intra-peritoneal injections of AY-9944, at P9 and P15 and sacrificed at P21.

Where [2] appears, read: intraocular injection at P9 and P15.

Take “methyl-β-cyclodextrin [MβCD, reference compound]”: in the assay with spinal cord injured rats (as early as 2-3 weeks post-SCI), the “functional recovery (BBB score and motor subscore) compared to controls” value is “significant functional recovery”. In addition, the “improvement of locomotor recovery vs. control” value in the assay with spinal cord injured rats (older animals (greater than 7 month), post-SCI) is reported as “+6.8 BBB points”. In assay [1], the “maximal distance of labeled fibers caudal to the lesion site” value is listed as “about 4 mm” and the “average length of the longest axon” value stood at 2195±335 μm. Moreover, in the assay with photoreceptor cells (daily injections P9 to P21), the “average depth of the ONL” value is reported as “about 6 cells”, the “increase in the average thickness of the ONL” value is “three-fold” and the photoreceptor survival entry is listed as “photoreceptor survival was improved”. Further, the “number of rods within the Outer Nuclear Layer (anti-Rhodopsin)” value in the assay with photoreceptor cells (injected at P9, P21) is on record as “dramatic increase in the number of rods”.

B1: 4Ig: four immunoglobulin-like domains of Neogenin, amino acids 1 to 383 of Accession No. AAC59662 (SEQ ID NO:1) (protein, listed as Gallus gallus)
chain: RSGPRSPLTGSVVRTFTPFYFLVEPMDILSVRGASVIMNCSSYCETPPKIEWKKDGTLLNLVSDDRRQLLPDGSLLINSVVHSKHNKPDEGYYQCVATVESLGSIVSRTAKLTVAGLPRFTSQPELSSVYKGNSAILNCEVNVDLAPFVRWEQDRQPLSLDDRVFKLPSGALLIGNATDTDGGFYRCVIESGGTPKYSEEAELKILPDPEEPQSLVFVRQPSSLTKVTGQNAVFPCVAGGFPTPYVRWTKNGEELITEDSERFALRAGGSLLISDVTEEDVGTYTCIADNENETIEAQAELAVQVPPEFLKRPANIYAHESMDIVFECEVTGKPTPTVKWVKNGDVVIPSDYFKIVKEHNLQVLGLVKSDEGFYQCIAENDVGNAQAGAQLIILDLDVAIPTLPPTSLTSATNDHLAPATTGPLPTAPRDVVATLVSTRFIRLTWRTPVSDPQGDNLTYSIFYTKEGINRERVENTSRPGETQVMIQNLMPETVYVFRVVAQNKHGHGESSAPLKVATQPEVQLPGPAPNIRAYAGSPTSVTVTWETPLSGNGEIQNYKLYYMEKGQDSEQDVDVAGLSYTITGLKKYTEYSFRVVAYNKHGPGVSTQDVVVRTLSDVPSAAPQNLTLEARNSKSIMLHWQPPPAGTHSGQITGYKIRYRKVSRKSDVTESVGGTQLFQLIEGLERGTEYNFRIAAMTVNGTGPATDWVSAETFESDLDESRVPEVPSSLHVRPLVTSIVVSWTPPENQNIVVRGYAIGYGIGSPHAQTIKVDYKQRYYTIENLDPSSHYVITLKAFNNVGEGIPLYESAVTRPHSDTSEVDLFVINAPYTPVPDPSPMMPPVGVQASILSHDTIRITWADNSLPKNQKITDARYYTVRWKTNIPANTKYKTANATTLSYLVTGLKPNTLYEFSVMVTKGRRSSTWSMTAHGTTFELVPTSPPKDVTVVSKEGKPRTIIVNWQPPSEANGKITGYIIYYSTDVNAEIHDWVIEPVVGNRLTHQIQELTLDTPYYFKIQARNSKGMGPMSEAVQFRTPKAESSDKMPNDQASGSAGKGSRPVDVGPDYKPPLSGSNSPHGSPTSPLDSNMLLVIIVSVGVITIVIVVIVAVFCTRRTTSHQKKKRAACKSVNGSHKYKGNSKDVKPPDLWIHHERLELKPIDKSPDPNPIMTDTPIPRNSQDITPVDNSMDSNIHQRRNSYRGHESEDSMSTLAGRRGMRPKMMMPFDSQPPQPVISAHPIHSLDNPHHHFHSGSLASPTRSYLHHQVSPWPVGTSMSHSDRANSTESVRNTPSSDTMPASSSQPCADHQDPDSSSGAYLGSAQEEDAAQSLPTAHVRPSHPLKSFAVPAVPAAGSAYDPTLPSTPLLTQQAPSHPVHSVKTASIGTLGRTRPPMPVVVPSAPDVQETTRMLEDSESSYEPDELTKEMAHLEGLMKDLNAITTA
modifications: Neogenin - Accession No. AAC59662
Consider B1, for which the “functional recovery (BBB score and motor subscore) compared to controls” value with spinal cord injured rats (as early as 2-3 weeks post-SCI) is “significant functional recovery”. Besides, in the assay with spinal cord injured rats (intrathecal), the “hindlimb coordination (footfalls), local application” value is given as “fewer footfalls”. The “functional recovery (BBB score), local application” value in the assay on spinal cord injured rats (intrathecal, Alzet mini-osmotic pumps, as early as 2-3 weeks post-SCI) is “significant functional recovery”. Moreover, the “hindlimb coordination, ladder-walk test (footfalls)” value in the assay on spinal cord injured rats (systemic treatment) is on record as “fewer footfalls”. In assay [1], the “maximal distance of labeled fibers caudal to the lesion site” value was “about 4 mm” and the “average length of the longest axon” value is listed as 2875±228 μm. In assay [1] (IV-injection), the “fiber length at 6 weeks compared to 4 weeks following injury” value was “significantly longer at 6 weeks”. Moreover, the “outer nuclear layer (ONL) thickness” value in the assay with photoreceptor cells (intraocular injection 2 μg/μl at P9 and P15, P21, control about 2 cells) is recorded as “about 6 cells”. In the assay on photoreceptor cells (setting [2]), the “increase of ONL thickness compared to control mice” value is listed as “more than three-fold” and the “number of photoreceptors within the retina vs control” value is “significantly improved the number of photoreceptors”.

Source of the values: patent US11497796B2, “Agents directed against a cis RGMa/neogenin interaction or lipid rafts and use of the same in methods of treatment” (UNIVERSITY HEALTH NETWORK, priority 2013, dated 2022).
